Assays:
[1] = system: HEK293 cells; test: Confocal imaging of co-cultured EphA3-diHcRed/ADAM10 and GFP-ephrin expressing cells; assay type: cell-based, human; conditions: co-incubation with GFP-ephrin-A5 or GFP-ephrin-A2 cells for 40 min
Protocol: (§1) FIG. 4. Mutation of acidic residues in the ADAM10 Cys-rich domain affects binding to EphA3/ephrin-A5 and cleavage of ephrin-A5. • A. In vitro binding of mutant ADAM10D+C to EphA3/ephrin-A5. ADAM10D+C[EEE-A] containing Alanine substitutions of Glu573, Glu578, Glu579 (lanes 1-4) or ADAM10D+C[RDD-A] (Ala substitutions of Arg525, Asp526, Asp527, lanes 5-8) were incubated alone (lanes 1, 5), or together with EphA3-Fc (lanes 2, 6), ephrin-A5-Fc (lanes 3, 7), or EphA3-Fc and ephrin-A5 (lanes 4, 8). Complexed proteins were extracted with Protein-A-Sepharose beads and analysed as in FIG. 2. • B. Binding of wild-type and mutant ADAM10ΔMP to EphA3 in cells. EphA3/293 cells were transfected with HA-ADAM10ΔMP or HA-ADAM10ΔMP [EEE-A]. Parental and transfected cells were treated for 10 min with or without pre-clustered ephrin-A5-Fc and lysed. Anti-HA and anti-EphA3 immunoprecipitates, and total cell lysates were analysed by Western blotting with indicated antibodies. • C. Ephrin-A5-Fc cleavage in cells expressing wt and 3A mutant ADAM10. EphA3/293 cells were transfected with full length, wild-type (wt) ADAM10, dominant-negative ADAM10ΔMP, or ADAM10 bearing alanine (3A) or 3 lysine (3K) substitutions of Glu573, 578, 579. Following exposure to clustered (+) or non-clustered ? ephrin-A5 Fc, cleaved ephrin was recovered and analysed by Western Blot as described in FIG. 1c. Parallel anti-HA blots of whole-cell lysates reveal the expression levels of ADAM10 constructs. • D. Model of ADAM protein modules and cleavage mechanism. Left, schematic representation of ADAM proteinases protein domain organization; right, schematic representation of the proposed interactions and positioning of ADAM10, EphA3, and Ephrin-A5 between interacting cells, leading to controlled ephrin-cleavage. • E. Ephrin cleavage from the cell surface is blocked by overexpression of 3A-mutant ADAM10. HEK293 cells were co-transfected with (red-fluorescent) EphA3-diHcRed and either wt ADAM10, ADAM10 bearing alanine (3A) substitutions at Glu573, Glu578, and Glu579, or dominant-negative ADAM10ΔMP. […]

[2] = system: EphA3-expressing 293 cells; test: Ephrin-A5-Fc cleavage in EphA3/293 cells overexpressing ADAM10 constructs (Western blot of recovered ephrin); assay type: cell-based, human; conditions: overexpression of ADAM10 construct; clustered ephrin-A5-Fc
Protocol: as §1, with “1c.” for “1c. Parallel anti-HA blots of whole-cell lysates reveal the expression levels of ADAM10 constructs. • D. Model of ADAM protein modules and cleavage mechanism. Left, schematic representation of ADAM proteinases protein domain organization; right, schematic representation of the proposed interactions and positioning of ADAM10, EphA3, and Ephrin-A5 between interacting cells, leading to controlled ephrin-cleavage. • E. Ephrin cleavage from the cell surface is blocked by overexpression of 3A-mutant ADAM10. HEK293 cells were co-transfected with (red-fluorescent) EphA3-diHcRed and either wt ADAM10, ADAM10 bearing alanine (3A) substitutions at Glu573, Glu578, and Glu579, or dominant-negative ADAM10ΔMP.”

[3] = biological target: T1, EphA3 (wild type, expressed in cells) (UniProt P29320 21-983, limits assumed); test: anti-EphA3 immunoprecipitation, anti-ADAM10 Western blot
T1 construct: whole, on cells; also called wt EphA3; w/t EphA3
T1 sequence (looked up): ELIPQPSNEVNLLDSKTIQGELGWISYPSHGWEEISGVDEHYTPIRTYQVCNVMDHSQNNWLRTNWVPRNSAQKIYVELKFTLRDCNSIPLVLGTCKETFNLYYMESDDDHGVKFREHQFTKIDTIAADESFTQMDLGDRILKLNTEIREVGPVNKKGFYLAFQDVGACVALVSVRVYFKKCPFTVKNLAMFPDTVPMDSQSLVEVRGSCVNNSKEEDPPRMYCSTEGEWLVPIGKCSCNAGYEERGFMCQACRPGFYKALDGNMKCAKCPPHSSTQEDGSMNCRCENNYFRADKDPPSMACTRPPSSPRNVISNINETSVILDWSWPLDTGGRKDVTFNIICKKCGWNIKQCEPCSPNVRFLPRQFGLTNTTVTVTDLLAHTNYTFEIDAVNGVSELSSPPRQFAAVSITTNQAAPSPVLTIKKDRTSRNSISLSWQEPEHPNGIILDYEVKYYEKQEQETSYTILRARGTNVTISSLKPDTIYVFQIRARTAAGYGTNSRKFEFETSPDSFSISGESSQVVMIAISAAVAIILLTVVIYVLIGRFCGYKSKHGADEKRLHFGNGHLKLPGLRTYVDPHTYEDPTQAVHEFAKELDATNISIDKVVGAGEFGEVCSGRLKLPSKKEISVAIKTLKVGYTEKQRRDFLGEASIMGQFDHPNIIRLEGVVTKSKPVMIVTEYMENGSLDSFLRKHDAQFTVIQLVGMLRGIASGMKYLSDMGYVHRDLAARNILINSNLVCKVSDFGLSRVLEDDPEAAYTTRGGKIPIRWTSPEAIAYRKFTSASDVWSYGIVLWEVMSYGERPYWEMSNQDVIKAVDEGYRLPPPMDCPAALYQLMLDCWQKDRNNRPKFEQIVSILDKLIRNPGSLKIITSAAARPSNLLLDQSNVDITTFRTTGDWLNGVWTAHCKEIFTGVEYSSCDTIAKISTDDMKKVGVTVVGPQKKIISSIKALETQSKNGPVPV
Protocol: Cells were cultured in DME/10% FCS and transfected with Lipofectamine 2000 (Invitrogen), and in some experiments treated with the metalloprotease inhibitors 1,10-O-Phenanthroline (OPN, 4h, 1 mM; Mumm et al., 2000, Mol. Cell. 5 197-206) and TAPI1 (1h, 50 µM; Yan et al., 2002, J Cell Biol. 158 221-6). HEK293 cells were transfected with EphA3 (Wicks et al., 1992, Proc. Natl. Acad. Sci. USA 89 1611-1615) or ephrin-A5 (Winslow et al., 1995, Neuron 14 973-81; Lackmann et al., 1996, Proc. Natl. Acad. Sci. USA 93 2523-2527) in pEfBos vectors containing puromycin or gentamycin resistance genes, respectively and stable EphA3/HEK293 or ephrin-A5/HEK293 clones derived accordingly. Serum-starved cells were stimulated (10 min) with 1.5 ug/ml pre-clustered ephrinA5-Fc and harvested, as described previously. Immunoprecipitation was with anti-EphA3 mAb IIIA4 (Boyd et al., 1992, J Biol. Chem. 267 3262-3267. or anti-HA mAb 3F10 (Roche) conjugated to beads, and Western blotting was performed using anti-ADAM10 (Biogenesis, UK), anti-ephrinA5 (R&D Systems) and anti-ephA3 (Lackmann et al., 1997, supra) antibodies.
Initially, we investigated whether ADAM10 interacts with either EphA3 or ephrin-A5 on the cell surface and how these interactions are affected upon Eph/ephrin complex formation. […]

Molecule | ephrin cleavage from the cell surface and internalisation [1] | ephrin-A5 cleavage [2] | binding result [3]
wt-ADAM10: full length, wild-type ADAM10 overexpressed in cells (protein, left off: small tags and cut ends, full length, wild-type ADAM10 overexpressed in cells) TTVAEKNTCQLYIQTDHLFFKYYGTREAVIAQISSHVKAIDTIYQTTDFSGIRNISFMVKRIRINTTADEKDPTNPFRFPNIGVEKFLELNSEQNHDDYCLAYVFTDRDFDDGVLGLAWVGAPSGSSGGICEKSKLYSDGKKKSLNTGIITVQNYGSHVPPKVSHITFAHEVGHNFGSPHDSGTECTPGESKNLGQKENGNYIMYARATSGDKLNNNKFSLCSIRNISQVLEKKRNNCFVESGQPICGNGMVEQGEECDCGYSDQCKDECCYDANQPEGKKCKLKPGKQCSPSQGPCCTAHCAFKSKTEKCRDDSDCAKEGICNGITALCPASDPKPNFTDCNRHTQVCINGQCAGSICEKHGLEECTCASSDGKDDKELCHVCCMKKMEPSTCASTGSVQWNKYFLGRTITLQPGSPCNDFRGYCDVFMRCRLVDADGPLARLKKAIFSPELYENIAEWIVAYWWAVLLMGIALIMLMAGFIKICSVHTPSSNPKLPPPKPLPGTLKRRRPPQPIQQPQRQRPRESYQMGHMRR | readily noticeable | did not increase ephrin cleavage above control levels | 
endogenous ADAM10 (HEK293 and LiBr melanoma cells) (enzyme, human, UniProt O14672 214-748, looked up, whole, on cells; Both pro and mature forms are marked on the blot; also called pro (unprocessed) and mature (processed) forms) TTSAEKNTCQLYIQTDHLFFKYYGTREAVIAQISSHVKAIDTIYQTTDFSGIRNISFMVKRIRINTTADEKDPTNPFRFPNIGVEKFLELNSEQNHDDYCLAYVFTDRDFDDGVLGLAWVGAPSGSSGGICEKSKLYSDGKKKSLNTGIITVQNYGSHVPPKVSHITFAHEVGHNFGSPHDSGTECTPGESKNLGQKENGNYIMYARATSGDKLNNNKFSLCSIRNISQVLEKKRNNCFVESGQPICGNGMVEQGEECDCGYSDQCKDECCFDANQPEGRKCKLKPGKQCSPSQGPCCTAQCAFKSKSEKCRDDSDCAREGICNGFTALCPASDPKPNFTDCNRHTQVCINGQCAGSICEKYGLEECTCASSDGKDDKELCHVCCMKKMDPSTCASTGSVQWSRHFSGRTITLQPGSPCNDFRGYCDVFMRCRLVDADGPLARLKKAIFSPELYENIAEWIVAHWWAVLLMGIALIMLMAGFIKICSVHTPSSNPKLPPPKPLPGTLKRRRPPQPIQQPQRQRPRESYQMGHMRR |  |  | binds

Source: patent publication US7960513B2, “Antibody against a human ADAM protease” (Monash University, priority 2004, dated 2011)
